Results taken from article PMC1405823.

System: BsSSB (6xHis-tagged, as purified) (Bacillus subtilis)
Experiment: EMSA
Conditions: 100 mM Tris-HCl pH 7.5, 10 min at 37 °C, 12.5% native PAGE

Question: 50-base random sequence ssDNA was tested. Which binding signal (% probe shifted) did it give?
Answer: 50
